Assay results as given in publication PMC2570560, “Subunit Mobility and the Chaperone Activity of Recombinant αB-Crystallin” (The Open Biochemistry Journal, 2008).

Target: the molecule itself
Assay: cross-linking; 0.05 mM αB-crystallin with 0.3 mM glutaraldehyde in PBS (20 mM phosphate buffer, 150 mM NaCl, pH 7.2), 20 °C, 30 h; dialysed against PBS; examined by SDS-PAGE

B1: recombinant human αB-crystallin (natural protein, UniProt P02511 1-175, looked up)
chain: MDIAIHHPWIRRPFFPFHSPSRLFDQFFGEHLLESDLFPTSTSLSPFYLRPPSFLRAPSWFDTGLSEMRLEKDRFSVNLDVKHFSPEELKVKVLGDVIEVHGKHEERQDEHGFISREFHRKYRIPADVDPLTITSSLSSDGVLTVNGPRKQVSGPERTIPITREEKPAVTAAPKK
notes: also called native αB-crystallin; source: E. coli BL21(DE3), purified (ammonium sulfate fractionation, Q-Sepharose anion exchange)
B1: binds.
